Target: DmCas7-11;DmTPR-CHAT full-length (Desulfonema magnum;Desulfonema magnum, UniProt A0A975GRY4;A0A975BRS1 1-1785;1-822, |)
Experiment: cryo-EM; Craspase complex with full TPR-CHAT, 3.2 A; PDB 7ZOL or 7ZOQ (assignment not stated); EMSA: 32.5 mM HEPES-NaOH pH 7.5, 100 mM NaCl, 2.5 mM DTT, 1 U/ul RNase inhibitor, 50 nM RNA, 30 min on ice; no Mg2+ listed
Details: protein: recombinant;recombinant; tags: 6xHis (N-terminal);Twin-Strep (N-terminal); copies: 1;1; single strand

Chain of DmCas7-11;DmTPR-CHAT full-length (chain, as listed by the source |, chain 1 of 2): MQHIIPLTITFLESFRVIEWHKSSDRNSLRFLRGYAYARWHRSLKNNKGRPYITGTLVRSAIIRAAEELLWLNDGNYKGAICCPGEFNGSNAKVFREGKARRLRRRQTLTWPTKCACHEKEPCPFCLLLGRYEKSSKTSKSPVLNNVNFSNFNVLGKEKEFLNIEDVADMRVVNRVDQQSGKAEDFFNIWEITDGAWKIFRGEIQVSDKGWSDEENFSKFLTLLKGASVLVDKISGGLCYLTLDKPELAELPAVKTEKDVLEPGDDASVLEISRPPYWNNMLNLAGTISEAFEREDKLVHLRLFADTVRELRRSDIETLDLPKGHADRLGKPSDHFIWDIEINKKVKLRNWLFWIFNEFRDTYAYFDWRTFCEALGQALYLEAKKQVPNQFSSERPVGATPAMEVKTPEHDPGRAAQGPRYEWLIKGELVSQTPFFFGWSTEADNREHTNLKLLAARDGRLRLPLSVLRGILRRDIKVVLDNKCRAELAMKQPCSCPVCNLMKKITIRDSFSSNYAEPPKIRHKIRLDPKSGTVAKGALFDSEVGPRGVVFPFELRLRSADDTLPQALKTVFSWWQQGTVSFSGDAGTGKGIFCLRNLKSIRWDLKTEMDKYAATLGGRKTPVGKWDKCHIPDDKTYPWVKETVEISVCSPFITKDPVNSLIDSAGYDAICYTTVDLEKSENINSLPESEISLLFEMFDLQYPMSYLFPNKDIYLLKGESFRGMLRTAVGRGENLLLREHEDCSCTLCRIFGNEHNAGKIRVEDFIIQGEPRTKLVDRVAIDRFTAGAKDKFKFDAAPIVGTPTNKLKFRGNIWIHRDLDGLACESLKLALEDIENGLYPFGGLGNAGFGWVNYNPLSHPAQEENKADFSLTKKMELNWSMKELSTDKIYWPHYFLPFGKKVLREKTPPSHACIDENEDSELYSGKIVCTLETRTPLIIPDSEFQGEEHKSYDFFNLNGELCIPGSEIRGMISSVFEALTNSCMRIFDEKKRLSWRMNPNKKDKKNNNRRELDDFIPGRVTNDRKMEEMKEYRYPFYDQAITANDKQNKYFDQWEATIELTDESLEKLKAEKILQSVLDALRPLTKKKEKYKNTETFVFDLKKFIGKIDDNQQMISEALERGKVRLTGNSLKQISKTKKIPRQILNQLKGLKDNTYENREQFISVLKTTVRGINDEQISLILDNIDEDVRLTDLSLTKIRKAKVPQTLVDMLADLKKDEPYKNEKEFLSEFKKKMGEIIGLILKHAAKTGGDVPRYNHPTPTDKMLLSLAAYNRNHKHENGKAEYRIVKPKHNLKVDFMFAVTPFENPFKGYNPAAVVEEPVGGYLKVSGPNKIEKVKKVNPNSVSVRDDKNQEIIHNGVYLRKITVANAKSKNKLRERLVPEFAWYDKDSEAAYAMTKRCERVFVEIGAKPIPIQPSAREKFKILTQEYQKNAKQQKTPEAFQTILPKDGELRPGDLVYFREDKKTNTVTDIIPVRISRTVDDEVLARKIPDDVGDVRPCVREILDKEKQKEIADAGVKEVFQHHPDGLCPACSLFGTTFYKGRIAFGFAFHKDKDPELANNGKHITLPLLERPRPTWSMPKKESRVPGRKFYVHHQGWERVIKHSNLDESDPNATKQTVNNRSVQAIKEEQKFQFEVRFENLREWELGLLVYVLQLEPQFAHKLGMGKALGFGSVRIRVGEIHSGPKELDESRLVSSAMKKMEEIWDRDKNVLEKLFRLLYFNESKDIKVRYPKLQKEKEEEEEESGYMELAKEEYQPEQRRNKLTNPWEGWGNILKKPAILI
Chain of DmCas7-11;DmTPR-CHAT full-length (chain, as listed by the source |, chain 2 of 2): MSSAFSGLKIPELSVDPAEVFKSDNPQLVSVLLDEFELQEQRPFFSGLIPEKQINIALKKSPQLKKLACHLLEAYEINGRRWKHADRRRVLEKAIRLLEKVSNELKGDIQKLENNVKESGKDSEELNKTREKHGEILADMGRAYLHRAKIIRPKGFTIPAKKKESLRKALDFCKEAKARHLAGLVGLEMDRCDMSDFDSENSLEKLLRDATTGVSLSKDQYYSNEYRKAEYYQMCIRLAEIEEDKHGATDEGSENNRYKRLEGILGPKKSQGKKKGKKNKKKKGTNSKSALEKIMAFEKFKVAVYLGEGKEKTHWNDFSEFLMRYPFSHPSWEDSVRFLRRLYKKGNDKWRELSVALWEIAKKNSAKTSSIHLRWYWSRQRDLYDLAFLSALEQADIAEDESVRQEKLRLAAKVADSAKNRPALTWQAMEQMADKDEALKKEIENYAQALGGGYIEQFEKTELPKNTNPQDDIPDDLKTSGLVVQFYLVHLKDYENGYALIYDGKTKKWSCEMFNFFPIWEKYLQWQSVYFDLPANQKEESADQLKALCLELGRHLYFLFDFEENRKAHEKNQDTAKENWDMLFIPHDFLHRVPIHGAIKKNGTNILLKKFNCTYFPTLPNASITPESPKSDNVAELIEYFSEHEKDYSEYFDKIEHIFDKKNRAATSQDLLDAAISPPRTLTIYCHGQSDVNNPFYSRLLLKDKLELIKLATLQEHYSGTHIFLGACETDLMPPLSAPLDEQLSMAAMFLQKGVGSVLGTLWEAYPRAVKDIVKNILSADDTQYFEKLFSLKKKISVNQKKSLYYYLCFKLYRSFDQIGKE

UUAUGUGAUGGAACCUCUCCGGAUAAUUCUAUCUCUUCUG (ssRNA) [crRNA (13+ nt 5' handle, spacer C15-G40 modelled)]: binds.
